Assay results from patent US20240182536A1 (MURAL ONCOLOGY, published 2024).
Where two headings read alike, the source gives them in different places.

T1: IL-18 receptor alpha (UniProt Q13478 19-329, limits assumed)
T1 construct: also called IL-18 Rα; IL-18Rα
T1 sequence (looked up): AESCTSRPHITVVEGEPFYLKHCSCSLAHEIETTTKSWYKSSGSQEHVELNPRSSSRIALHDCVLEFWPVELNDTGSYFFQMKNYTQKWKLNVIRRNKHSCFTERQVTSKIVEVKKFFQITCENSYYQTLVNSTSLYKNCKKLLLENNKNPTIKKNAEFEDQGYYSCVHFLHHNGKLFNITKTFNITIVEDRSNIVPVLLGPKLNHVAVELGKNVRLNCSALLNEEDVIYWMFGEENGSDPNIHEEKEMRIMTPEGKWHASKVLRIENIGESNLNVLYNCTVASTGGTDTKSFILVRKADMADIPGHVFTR

T2: human IL-18 binding protein (human, UniProt O95998 31-194)
T2 sequence (looked up): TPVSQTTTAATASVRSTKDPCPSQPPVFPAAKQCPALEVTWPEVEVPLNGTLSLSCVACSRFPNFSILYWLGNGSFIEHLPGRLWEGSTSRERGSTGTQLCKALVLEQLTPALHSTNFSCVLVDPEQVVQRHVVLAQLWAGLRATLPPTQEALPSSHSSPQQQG

T3: IL-18 receptors on HEK-Blue IL-18 reporter cells (UniProt Q13478 19-541; O95256 20-599, limits assumed)
T3 sequence (looked up) 1: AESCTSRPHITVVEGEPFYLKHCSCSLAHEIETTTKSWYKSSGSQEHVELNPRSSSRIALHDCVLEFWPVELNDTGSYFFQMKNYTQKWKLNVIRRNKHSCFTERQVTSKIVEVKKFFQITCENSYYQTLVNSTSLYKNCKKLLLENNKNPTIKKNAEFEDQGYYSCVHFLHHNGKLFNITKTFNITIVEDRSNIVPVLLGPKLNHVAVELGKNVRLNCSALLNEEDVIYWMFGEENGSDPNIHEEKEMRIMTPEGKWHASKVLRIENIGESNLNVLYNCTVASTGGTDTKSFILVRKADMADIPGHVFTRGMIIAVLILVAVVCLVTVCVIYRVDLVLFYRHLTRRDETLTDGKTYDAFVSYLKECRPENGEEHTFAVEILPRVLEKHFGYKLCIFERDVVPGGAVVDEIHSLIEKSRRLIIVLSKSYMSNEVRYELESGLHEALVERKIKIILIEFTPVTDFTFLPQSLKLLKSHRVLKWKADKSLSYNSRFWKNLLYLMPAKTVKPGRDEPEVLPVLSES
T3 sequence (looked up) 2: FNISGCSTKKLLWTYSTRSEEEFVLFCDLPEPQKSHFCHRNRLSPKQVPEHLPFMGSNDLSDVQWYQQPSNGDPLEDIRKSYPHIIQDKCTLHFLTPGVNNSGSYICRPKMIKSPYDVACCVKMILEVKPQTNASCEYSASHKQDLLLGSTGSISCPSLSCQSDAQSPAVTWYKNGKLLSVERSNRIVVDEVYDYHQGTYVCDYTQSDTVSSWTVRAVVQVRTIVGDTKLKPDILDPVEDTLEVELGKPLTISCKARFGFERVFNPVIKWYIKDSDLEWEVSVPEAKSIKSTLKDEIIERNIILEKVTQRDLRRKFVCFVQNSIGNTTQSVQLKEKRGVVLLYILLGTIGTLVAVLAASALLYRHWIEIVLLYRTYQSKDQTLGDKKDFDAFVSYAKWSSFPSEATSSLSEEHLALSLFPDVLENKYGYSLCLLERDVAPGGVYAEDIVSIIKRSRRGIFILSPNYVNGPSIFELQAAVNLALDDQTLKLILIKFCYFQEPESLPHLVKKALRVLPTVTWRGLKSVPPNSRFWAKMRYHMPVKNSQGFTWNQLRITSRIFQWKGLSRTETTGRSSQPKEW


Experiments:
IL-18 receptor alpha = target: T1, IL-18 receptor alpha; experiment: Octet BLI
Description: Octet 96red instrument was used to determine affinities of IL18 proteins to BP or receptors. 5-10 ug/ml analyte proteins were used for loading on Sartorius tips (AHC or SA). […] 120-180 s loading, 200 s association and 800 s dissociation were used for kinetics. 3-7 data points were used to calculate affinities.
Additional IL-18 variants were generated and tested based on the results above with G3 variants, E6 variants, K53 variants, and M60 variants. The new variants were first tested for binding to IL-18Rα and IL-18BP by octet, as described above.

[1] = target: T2, human IL-18 binding protein; experiment: cell-based or functional assay
[2] = target: T3, IL-18 receptors on HEK-Blue IL-18 …; experiment: cell-based or functional assay
[3] = target: T2, human IL-18 binding protein; experiment: cell-based or functional assay; remark: listed apart in the source
[4] = target: T3, IL-18 receptors on HEK-Blue IL-18 …; experiment: cell-based or functional assay; remark: listed apart in the source

Binder	Kd (IL-18 receptor alpha)	HEK-blue EC50 (pM) + 300 nM BP [1]	HEK-blue EC50 (pM) - BP [2]	HEK-blue EC50 (pM) + 1000 nM BP [3]	HEK-blue EC50 (pM) - BP [4]
Comparator 1 (ligand, Human IL-18 variant M51K, K53S, Q56L, P57A, M60L, S105D, D110S, N111R; also called IL-18 Comparator 1) YFGKLESKLSVIRNLNDQVLFIDQGNRPLFEDMTDSDCRDNAPRTIFIISKYSDSLARGLAVTISVKCEKISTLSCENKIISFKEMNPPDNIKDTKSDIIFFQRDVPGHSRKMQFESSSYEGYFLACEKERDLFKLILKKEDELGDRSIMFTVQNED	16 nM				
human IL-18 variant G3T/K53S/M60K (ligand) YFTKLESKLSVIRNLNDQVLFIDQGNRPLFEDMTDSDMRDNAPRTIFIISMYSDSQPRGKAVTISVKSEKISTLSSENKIISFKEMNPPDNIKDTKSDIIFFQRSVPGHDNKMQFESSSYEGYFLASEKERDLFKLILKKEDELGDRSIMFTVQNED	5050 nM	4.99 pM	4.26 pM	4.1 pM	5.53 pM
human IL-18 variant G3V/E6K/K53A/M60K (ligand) YFVKLKSKLSVIRNLNDQVLFIDQGNRPLFEDMTDSDMRDNAPRTIFIISMYADSQPRGKAVTISVKSEKISTLSSENKIISFKEMNPPDNIKDTKSDIIFFQRSVPGHDNKMQFESSSYEGYFLASEKERDLFKLILKKEDELGDRSIMFTVQNED	82 nM	0.033 pM	0.026 pM	0.028 pM	0.031 pM
human IL-18 variant G3T/K53A/M60K (ligand) YFTKLESKLSVIRNLNDQVLFIDQGNRPLFEDMTDSDMRDNAPRTIFIISMYADSQPRGKAVTISVKSEKISTLSSENKIISFKEMNPPDNIKDTKSDIIFFQRSVPGHDNKMQFESSSYEGYFLASEKERDLFKLILKKEDELGDRSIMFTVQNED	2260 nM	1.01 pM	0.843 pM	1.31 pM	1.88 pM
human IL-18 variant G3T/E6K/K53S/M60K (ligand) YFTKLKSKLSVIRNLNDQVLFIDQGNRPLFEDMTDSDMRDNAPRTIFIISMYSDSQPRGKAVTISVKSEKISTLSSENKIISFKEMNPPDNIKDTKSDIIFFQRSVPGHDNKMQFESSSYEGYFLASEKERDLFKLILKKEDELGDRSIMFTVQNED	536 nM	0.308 pM	0.33 pM	0.231 pM	0.252 pM
human IL-18 variant G3T/E6K/K53A/M60K (ligand) YFTKLKSKLSVIRNLNDQVLFIDQGNRPLFEDMTDSDMRDNAPRTIFIISMYADSQPRGKAVTISVKSEKISTLSSENKIISFKEMNPPDNIKDTKSDIIFFQRSVPGHDNKMQFESSSYEGYFLASEKERDLFKLILKKEDELGDRSIMFTVQNED	222 nM	0.062 pM	0.061 pM	0.065 pM	0.054 pM
human IL-18 variant G3V/E6K/K53S/M60K (ligand) YFVKLKSKLSVIRNLNDQVLFIDQGNRPLFEDMTDSDMRDNAPRTIFIISMYSDSQPRGKAVTISVKSEKISTLSSENKIISFKEMNPPDNIKDTKSDIIFFQRSVPGHDNKMQFESSSYEGYFLASEKERDLFKLILKKEDELGDRSIMFTVQNED	324 nM	0.098 pM	0.079 pM	0.095 pM	0.089 pM
